Molecular target: EphA2 receptor on tumor cells (human, UniProt P29317 24-976)
Test: cell-based or functional assay

Chain of EphA2 receptor on tumor cells (P29317 24-976): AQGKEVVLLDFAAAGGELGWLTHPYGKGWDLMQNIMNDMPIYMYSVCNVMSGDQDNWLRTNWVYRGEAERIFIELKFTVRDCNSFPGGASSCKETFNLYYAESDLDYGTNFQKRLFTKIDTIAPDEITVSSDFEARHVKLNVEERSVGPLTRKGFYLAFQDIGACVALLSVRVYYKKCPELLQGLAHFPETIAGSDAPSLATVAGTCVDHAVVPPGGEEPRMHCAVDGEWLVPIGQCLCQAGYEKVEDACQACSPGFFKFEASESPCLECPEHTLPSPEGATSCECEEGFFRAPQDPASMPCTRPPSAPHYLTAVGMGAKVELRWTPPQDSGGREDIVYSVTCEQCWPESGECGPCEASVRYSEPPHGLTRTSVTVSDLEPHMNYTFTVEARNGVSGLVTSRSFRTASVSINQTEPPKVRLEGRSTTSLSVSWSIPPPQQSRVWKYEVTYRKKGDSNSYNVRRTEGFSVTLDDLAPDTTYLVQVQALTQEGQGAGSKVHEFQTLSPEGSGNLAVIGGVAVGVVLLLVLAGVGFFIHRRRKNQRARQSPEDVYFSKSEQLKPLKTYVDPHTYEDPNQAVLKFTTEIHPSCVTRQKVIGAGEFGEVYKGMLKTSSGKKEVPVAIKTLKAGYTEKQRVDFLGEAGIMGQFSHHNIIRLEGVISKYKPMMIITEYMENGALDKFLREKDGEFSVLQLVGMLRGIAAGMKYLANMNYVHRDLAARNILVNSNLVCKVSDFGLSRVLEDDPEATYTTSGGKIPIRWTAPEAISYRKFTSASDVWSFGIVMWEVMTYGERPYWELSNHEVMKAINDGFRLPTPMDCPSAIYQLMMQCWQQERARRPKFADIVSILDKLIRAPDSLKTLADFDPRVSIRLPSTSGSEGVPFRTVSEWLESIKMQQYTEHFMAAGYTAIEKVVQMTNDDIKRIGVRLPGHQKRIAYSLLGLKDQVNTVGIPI

B1: hu2H11R35R74-PEG4-Mal-DM4 (DAR 7.00) (antibody, V domains shown)
VH: QVQLVQSGAEVVKPGASVKISCKASGYTFTAYYMHWVKQSPVQSLEWIGLVNPYNGFSSYNQKFQGKASLTVDRSSSTAYMELHSLTSEDSAVYYCAREFYGYRYFDVWGQGTAVTVSS
VL: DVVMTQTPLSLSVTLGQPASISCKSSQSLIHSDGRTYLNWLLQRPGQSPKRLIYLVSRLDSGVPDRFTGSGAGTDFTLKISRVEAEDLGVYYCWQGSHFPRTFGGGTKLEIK
modifications: DM4 through PEG4-Mal linker on lysine residues, sites not given; average DAR 7.00
IC50 (M), cytotoxic activity on Lovo cells (WST8, 5 days): 1.16e-11 M

Reference: patent US20120201828A1 (Sanofi, published 2012)
